From patent publication US20130260455A1 (ONCOMED PHARMACEUTICALS, published 2013)

Columns and labels:
[1] = target: T1, hNotch2 H385N AL 388-89 SN mutant, full length, on transfected cells (human, UniProt Q04721 26-2471); test: FACS on transfected cells
T1 construct: also called mutant hNotch2 in which certain EGF10 residues have been mutated to hNotch1 residues
Description: A comparison analysis of the EGF10 regions of human Notch1, Notch2, and Notch4 and the EGF9 region of human Notch3 (the equivalent of EGF10 in the other Notch receptors) was performed to determine likely binding sites for 59R1 (FIG. 14A). As a result of the analysis, several point mutants were created within full-length Notch2, converting residues within EGF10 to the corresponding amino acids in human Notch 1. Also, conversely, point mutations were made in hNotch1 EGF10 converting residues to the corresponding hN2 residues. Mutants in full-length Notch sequences were generated by QuikChange® mutagenesis (Stratagene) and verified by sequencing. Binding to the mutants was determined by FACS analysis (FIGS. 14B and 14C). 59R1 was detected by PE-conjugated goat anti-human Fc gamma specific antibody (Jackson Immunochemicals, #109-116-170). […] The corresponding residues in hNotch3 are histidine 361, alanine 364, and isoleucine 365.

[2] = target: T2, recombinant human Notch2 (EGF10-15) (human, UniProt Q04721 375-605); test: Biacore 2000 SPR; Notch protein amine-coupled to CM5 chip, antibody 1-100 nM injected
T2 construct: The whole entry for hNotch2 is named here; also called hNotch2 **N2(EGF 10-155)
T2 sequence: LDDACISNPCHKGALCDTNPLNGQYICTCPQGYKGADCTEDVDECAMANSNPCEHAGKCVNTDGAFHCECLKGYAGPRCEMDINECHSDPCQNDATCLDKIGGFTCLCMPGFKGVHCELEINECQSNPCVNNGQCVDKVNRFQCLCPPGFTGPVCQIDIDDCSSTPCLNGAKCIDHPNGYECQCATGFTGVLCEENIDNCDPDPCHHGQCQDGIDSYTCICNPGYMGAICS
Description: (§1) The affinities for human and mouse Notch1, Notch2, Notch3, and Notch4 were determined using a Biacore 2000 instrument. Briefly, recombinant human and mouse Notch proteins (EGF10-15 for Notch1, 2, & 4; EGF9-14 for Notch3) were immobilized on a CM5 chip using standard amine based chemistry (NHS/EDC). For hNotch2. EGF1-12 was also tested for binding. Different antibody concentrations (1-100 nM) were injected over the protein surfaces and kinetic data were collected over time. The data was fit using the simultaneous global fit equation to yield dissociation constants (KD, nM) for each Notch (Table 3).

[3] = target: T3, recombinant human Notch2 (EGF1-12) (human, UniProt Q04721 26-493); test: as above
T3 construct: also called hNotch2 *N2(EGF1-12)
T3 sequence: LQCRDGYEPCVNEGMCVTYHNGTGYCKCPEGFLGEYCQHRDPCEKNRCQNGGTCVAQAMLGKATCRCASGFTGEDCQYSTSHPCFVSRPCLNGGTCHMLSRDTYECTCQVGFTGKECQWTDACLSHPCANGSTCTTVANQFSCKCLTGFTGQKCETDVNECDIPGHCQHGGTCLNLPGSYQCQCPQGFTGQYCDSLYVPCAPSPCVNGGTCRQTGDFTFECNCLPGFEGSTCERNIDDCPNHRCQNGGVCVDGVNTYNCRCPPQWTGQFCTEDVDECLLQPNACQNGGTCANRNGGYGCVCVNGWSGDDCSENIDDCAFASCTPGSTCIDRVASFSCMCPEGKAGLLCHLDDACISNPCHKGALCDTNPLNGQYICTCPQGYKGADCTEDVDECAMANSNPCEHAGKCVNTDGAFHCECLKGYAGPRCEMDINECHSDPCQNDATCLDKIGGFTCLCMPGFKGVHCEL
Description: as §1

[4] = target: T4, recombinant mouse Notch2 (EGF10-15) (mouse, UniProt O35516 375-605); test: as above
T4 construct: domain: EGF10-15; also called mNotch2; m-Notch2
T4 sequence (looked up): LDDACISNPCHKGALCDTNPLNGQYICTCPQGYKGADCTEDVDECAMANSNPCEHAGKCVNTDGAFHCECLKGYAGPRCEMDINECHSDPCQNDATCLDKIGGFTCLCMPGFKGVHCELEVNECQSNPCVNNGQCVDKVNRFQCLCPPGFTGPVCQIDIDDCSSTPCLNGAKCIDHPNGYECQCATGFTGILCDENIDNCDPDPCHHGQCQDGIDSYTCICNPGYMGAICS
Description: as §1

[5] = target: T5, recombinant mouse Notch3 (EGF9-14) (mouse, UniProt Q61982 352-581); test: as above
T5 construct: domain: EGF9-14; also called mNotch3; m-Notch3
T5 sequence (looked up): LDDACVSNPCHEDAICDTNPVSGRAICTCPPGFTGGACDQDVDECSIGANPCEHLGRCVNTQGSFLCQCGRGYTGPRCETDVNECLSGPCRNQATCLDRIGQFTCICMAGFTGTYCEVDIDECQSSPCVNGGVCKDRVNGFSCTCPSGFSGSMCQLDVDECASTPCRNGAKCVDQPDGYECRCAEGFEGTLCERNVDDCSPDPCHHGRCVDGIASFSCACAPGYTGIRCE
Description: as §1

[6] = target: T6, recombinant human Notch3 (EGF9-14) (human, UniProt Q9UM47 351-580); test: as above
T6 construct: The whole entry for hNotch3 is named here; also called hNotch3; h-Notch3
T6 sequence: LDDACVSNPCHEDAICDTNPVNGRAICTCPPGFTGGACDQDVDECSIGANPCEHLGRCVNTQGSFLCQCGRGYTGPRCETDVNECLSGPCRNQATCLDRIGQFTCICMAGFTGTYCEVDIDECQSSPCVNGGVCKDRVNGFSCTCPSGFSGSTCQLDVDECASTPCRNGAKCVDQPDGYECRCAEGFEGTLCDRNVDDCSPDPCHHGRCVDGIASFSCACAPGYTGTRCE
Description: as §1

[7] = target: T7, recombinant human Notch1 (EGF10-15) (human, UniProt P46531 372-601); test: Biacore 2000 SPR; Notch protein amine-coupled to CM5 chip, antibody 1-100 nM injected; Table 3: Biacore 2000, hNotch1 EGF10-15 on CM5 chip, antibody 1-100 nM; fitted KD
T7 construct: The whole entry for hNotch1 is named here; also called hNotch1; h-Notch1
Description: as §1

T1 sequence (Q04721 26-2471 H385N/A388S/L389N limits assumed): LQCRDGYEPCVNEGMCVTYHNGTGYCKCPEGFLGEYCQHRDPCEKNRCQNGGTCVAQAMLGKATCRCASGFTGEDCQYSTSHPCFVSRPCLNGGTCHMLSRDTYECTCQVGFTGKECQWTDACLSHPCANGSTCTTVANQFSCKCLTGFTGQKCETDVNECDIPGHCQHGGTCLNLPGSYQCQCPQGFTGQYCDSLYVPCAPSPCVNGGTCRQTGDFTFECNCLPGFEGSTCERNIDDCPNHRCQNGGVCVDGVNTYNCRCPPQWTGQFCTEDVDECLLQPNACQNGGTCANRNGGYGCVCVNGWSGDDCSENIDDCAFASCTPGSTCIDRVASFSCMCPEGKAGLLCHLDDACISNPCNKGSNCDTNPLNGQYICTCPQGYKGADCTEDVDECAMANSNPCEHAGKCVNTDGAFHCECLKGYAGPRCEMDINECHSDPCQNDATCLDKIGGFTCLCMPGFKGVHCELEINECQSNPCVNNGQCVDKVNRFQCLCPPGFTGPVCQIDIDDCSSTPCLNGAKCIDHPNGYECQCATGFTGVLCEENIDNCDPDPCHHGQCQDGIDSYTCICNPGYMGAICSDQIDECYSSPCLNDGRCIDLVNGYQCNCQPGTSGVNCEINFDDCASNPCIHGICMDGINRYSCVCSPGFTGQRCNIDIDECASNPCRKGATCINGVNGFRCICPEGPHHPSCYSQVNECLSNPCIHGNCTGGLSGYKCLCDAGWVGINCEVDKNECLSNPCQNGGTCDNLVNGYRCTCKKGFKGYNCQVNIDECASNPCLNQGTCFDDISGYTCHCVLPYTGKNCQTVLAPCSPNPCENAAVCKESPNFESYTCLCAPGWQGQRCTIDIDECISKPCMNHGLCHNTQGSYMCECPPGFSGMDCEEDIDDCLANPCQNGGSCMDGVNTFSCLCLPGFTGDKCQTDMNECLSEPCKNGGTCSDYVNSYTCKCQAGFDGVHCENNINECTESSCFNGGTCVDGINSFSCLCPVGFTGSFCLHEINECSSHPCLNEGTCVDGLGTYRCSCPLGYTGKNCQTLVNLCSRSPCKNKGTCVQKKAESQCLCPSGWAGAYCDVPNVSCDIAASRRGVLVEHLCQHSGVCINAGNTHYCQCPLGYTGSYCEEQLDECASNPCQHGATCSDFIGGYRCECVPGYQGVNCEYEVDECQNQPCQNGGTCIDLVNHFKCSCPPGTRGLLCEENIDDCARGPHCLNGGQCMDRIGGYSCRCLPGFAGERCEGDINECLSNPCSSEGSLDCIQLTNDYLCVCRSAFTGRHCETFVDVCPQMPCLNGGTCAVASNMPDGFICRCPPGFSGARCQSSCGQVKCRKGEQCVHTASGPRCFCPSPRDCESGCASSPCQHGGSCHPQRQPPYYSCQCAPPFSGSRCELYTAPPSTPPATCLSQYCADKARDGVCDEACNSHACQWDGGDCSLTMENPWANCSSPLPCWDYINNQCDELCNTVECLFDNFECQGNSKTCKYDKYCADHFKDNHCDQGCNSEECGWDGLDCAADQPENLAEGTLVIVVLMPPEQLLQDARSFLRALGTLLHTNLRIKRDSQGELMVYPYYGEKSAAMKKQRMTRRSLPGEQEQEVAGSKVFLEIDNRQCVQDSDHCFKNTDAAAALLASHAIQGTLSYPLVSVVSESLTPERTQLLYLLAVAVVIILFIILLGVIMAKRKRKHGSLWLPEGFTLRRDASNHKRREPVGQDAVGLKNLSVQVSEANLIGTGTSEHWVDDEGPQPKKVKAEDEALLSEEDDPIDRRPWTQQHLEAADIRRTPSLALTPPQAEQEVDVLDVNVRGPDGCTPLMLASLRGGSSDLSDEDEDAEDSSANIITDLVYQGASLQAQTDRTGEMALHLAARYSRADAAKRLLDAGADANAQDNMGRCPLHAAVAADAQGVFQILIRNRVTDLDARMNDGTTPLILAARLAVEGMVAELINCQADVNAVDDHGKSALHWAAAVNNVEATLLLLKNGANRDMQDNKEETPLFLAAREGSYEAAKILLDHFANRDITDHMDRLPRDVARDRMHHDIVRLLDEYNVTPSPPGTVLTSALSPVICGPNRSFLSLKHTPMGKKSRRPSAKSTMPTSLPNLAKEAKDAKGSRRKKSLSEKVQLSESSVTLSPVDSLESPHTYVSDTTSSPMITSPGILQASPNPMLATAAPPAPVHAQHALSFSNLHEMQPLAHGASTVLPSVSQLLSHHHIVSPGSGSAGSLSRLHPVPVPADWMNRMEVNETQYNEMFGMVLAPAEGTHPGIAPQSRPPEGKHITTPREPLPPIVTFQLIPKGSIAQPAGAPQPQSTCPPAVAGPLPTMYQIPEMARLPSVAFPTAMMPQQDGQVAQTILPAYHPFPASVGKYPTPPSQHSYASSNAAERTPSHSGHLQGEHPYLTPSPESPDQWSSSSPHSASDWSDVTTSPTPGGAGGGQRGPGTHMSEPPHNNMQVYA

binding result [1]: no binding
Kd [2]: < 100 pM
Kd [3]: < 100 pM
Kd [4]: 350 pM
Kd [5]: 130 pM
Kd [6]: 120 pM
Kd [7]: 86400 pM
B1: 59R1 IgG2 antibody (antibody, V domains shown)
VH: QVQLVESGGGLVQPGGSLRLSCAASGFTFSSSGMSWVRQAPGKGLEWVSVIASSGSNTYYADSVKGRFTISRDNSKNTLYLQMNSLRAEDTAVYYCARGIFFAIWGQGTLVTVSS
VL: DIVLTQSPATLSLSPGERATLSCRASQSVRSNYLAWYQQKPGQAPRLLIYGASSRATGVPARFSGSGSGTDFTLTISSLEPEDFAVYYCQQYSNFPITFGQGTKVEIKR
notes: Human IgG2/kappa made in CHO cells; also called anti-Notch2/3 antibody 59R1
